Target: H1 HA (recombinant HA of Figure 4E) (Influenza A virus, H1 subtype; strain …, UniProt A0A1J0CXU0)
Assay: BLI

B1: mAb 789-203-3C12 (IgG) (antibody, V domains shown)
VH: QVQLQESGPGLVKPSEILSLTCAVSGGSFSSYCWGWIRQPPGKGLEWIGSICGSGGSNYLNPSLKSRVTLSVDTSKNQFSLILNSVTAADTAVYYCAREGITIFGVVIPRVLDSWGQGAVVTVSS
VL: DIQMTQSPSSLSASVGDTVTITCRASQSISSWLAWYQQKPGKAPNLLIYRASTLQSGVPSRFSGSGSGTDFTLTISSLQSEDFATYFCQQSTSSPFTFGPGTKLDIK
B1: binds.

Source: PMC9772109 (Immunity, 2022)
